Positions count from the first letter of the chain named. Numbers in names are those of the source.
B1: CyPPO19 R89A + V305M + F360T: variant of CyPPO19 PPO protein (SEQ ID NO: 1) (protein)
chain: MSEVDVAIVGGGLSGLSLAWRLQQSAPQYSVVLLEASDRLGGNITTQTAEGFVWELGPNSFAPTPALLQLIAEVGLQSELIRGDRHLPAYIYWRGQLYPLQPTRPLALATSNLLSPWGKVRAALGALGFVPPYLGSGDESVNSFFRRHLGQEVAERLVAPFVSGVYAGDPQQLSAAAAFRRIAQLEKLGGGLIAGALHLRRQQAPKPKPPTSVQMRPGELGSFKEGLAALPRAIAQQLKAPIHLQTPVQEITPDPKGGYLLRSGEQTWRARSVVLATPAYQTAELVAPFQPAIARVLATIPYPTMACVVLAYPAGLGRSVRPGFGVLIPRSQGIRTLGTIWSSCLFPQRTPAGWQVFTSTIGGATDPDLASLSEEAIVQQVQQDLNRLLDLPAAKARLLGMKVWRRAIPQYMVGYPEQWQQVTHALSQTPGLFLCSNYAEGVALGDRVEHGNRTAAAVAAYLSGGQP
modifications: Synthetic_PPO of Thermosynechococcus elongatus PKUAC-SCTE542 (comprising GenBank No. CP032152.1)
B2: CyPPO19 R89A + I408R + F360L: variant of CyPPO19 PPO protein (SEQ ID NO: 1) (protein)
chain: B1 chain with M305V, T360L, I408R
modifications: Synthetic_PPO of Thermosynechococcus elongatus PKUAC-SCTE542 (comprising GenBank No. CP032152.1)
B3: CyPPO19 R89A + L327T + F360I: variant of CyPPO19 PPO protein (SEQ ID NO: 1) (protein)
chain: B1 chain with M305V, L327T, T360I
modifications: Synthetic_PPO of Thermosynechococcus elongatus PKUAC-SCTE542 (comprising GenBank No. CP032152.1)
B4: CyPPO19 R89A + I408W + F360V: variant of CyPPO19 PPO protein (SEQ ID NO: 1) (protein)
chain: B1 chain with M305V, T360V, I408W
modifications: Synthetic_PPO of Thermosynechococcus elongatus PKUAC-SCTE542 (comprising GenBank No. CP032152.1)
B5: CyPPO19 R89A + L327T + F360M: variant of CyPPO19 PPO protein (SEQ ID NO: 1) (protein)
chain: B1 chain with M305V, L327T, T360M
modifications: Synthetic_PPO of Thermosynechococcus elongatus PKUAC-SCTE542 (comprising GenBank No. CP032152.1)
B6: CyPPO19 R89A + I408R + F360M: variant of CyPPO19 PPO protein (SEQ ID NO: 1) (protein)
chain: B1 chain with M305V, T360M, I408R
modifications: Synthetic_PPO of Thermosynechococcus elongatus PKUAC-SCTE542 (comprising GenBank No. CP032152.1)
B7: CyPPO19 V165S + A167I + F360M: variant of CyPPO19 PPO protein (SEQ ID NO: 1) (protein)
chain: B1 chain with A89R, V165S, A167I, M305V, T360M
modifications: Synthetic_PPO of Thermosynechococcus elongatus PKUAC-SCTE542 (comprising GenBank No. CP032152.1)
B8: CyPPO19 R89A + L327T + F360T: variant of CyPPO19 PPO protein (SEQ ID NO: 1) (protein)
chain: B1 chain with M305V, L327T
modifications: Synthetic_PPO of Thermosynechococcus elongatus PKUAC-SCTE542 (comprising GenBank No. CP032152.1)

What follows are molecules tested on PPO-deficient BT3 E. coli (ΔPPO) (assay: PPO-inhibiting herbicide tolerance test of PPO variants in E. coli (growth on herbicide-containing LB agar)). Conditions: CyPPO19 variants in BT3 (ΔPPO) E. coli; LB agar with 0 to 2,000 μM herbicide, 37° C., dark, 16-20 hours.
Format: cell-based
From the text: To enhance the PPO-inhibiting herbicide resistance of CyPPO19 and CyPPO18, PPO variant genes of the above example 2 were constructed. They were transformed to BT3 (ΔPPO) strain which is deficient of PPO activity and cultured in LB media with PPO-inhibiting herbicide, thereby examining whether growth of transformed BT3 was not inhibited.
BT3 competent cells were transformed with the pET303-CyPPO19 (wild type), pET303-CyPPO18 (wild type) plasmids, and those with a mutation(s) constructed (refer to example 2) via heat shock method, and were cultured in LB agar media containing ampicillin.
Single colony transformed with each CyPPO gene was cultured in 3 mL of LB broth (LPSS) containing ampicillin for more than 12 hours, and then was subcultured in LB broth until absorbance (OD600) reached 0.5 to 1. Then, it was diluted with LB broth to OD600=0.5. Again, the diluted solution was serially diluted 4 times by a factor of one tenth.
The LB agar media (LB 25 g/L, Bacto agar 12 g/L) containing ampicillin (100 μg/mL) and 0 to 2,000 μM of various herbicides were prepared. Herbicide solution stocks were all prepared in DMSO.
Then, 10 μL of each diluted solution of E. coli was dropped on the plate and cultured at 37° C. under dark for 16-20 hours. PPO-inhibiting herbicide resistance was evaluated with the extent of E. coli growth containing each gene was observed.
The extent of herbicide resistance was evaluated by the relative growth of variants to that of wild type, and listed in Tables 9 and 10 and FIGS. 3 to 32.
In Tables 9 and 10, the tolerance level of variants showing equivalent resistance to wild type was presented as ‘−’, and was done as ‘+’ per each 10-fold resistance until ‘+++++’ as maximal resistance.
FIGS. 3 to 30 and FIGS. 31 and 32 show the transformed E. coli growth result of CyPPO19 WT and its variants and CyPPO18 WT and its variants, respectively. The concentrations of herbicides were written above the photographs of tolerance test. A 10-fold dilution series of spots were shown from OD600=0.5 of the leftmost spot to OD600=0.00005 of the rightmost one.
B1 was tested, and the “tolerance level relative to wild type, Carfentrazone” value was “++ (‘+’ per each 10-fold resistance)”, the “tolerance level relative to wild type, Flumioxazin” value was “+++++ (until ‘+++++’ as maximal resistance)” and the “tolerance level relative to wild type, Fomesafen” value was “+++ (‘+’ per each 10-fold resistance)”. The “tolerance level relative to wild type, Oxyfluorfen” value was “+++ (‘+’ per each 10-fold resistance)”, the “tolerance level relative to wild type, Saflufenacil” value was “+++++ (until ‘+++++’ as maximal resistance)” and the “tolerance level relative to wild type, Sulfentrazone” value was “+++++ (until ‘+++++’ as maximal resistance)”. The “tolerance level relative to wild type, Tiafenacil” value was “+++++ (until ‘+++++’ as maximal resistance)”. With B2 the “tolerance level relative to wild type, Carfentrazone” value was “+ (‘+’ per each 10-fold resistance)”, the “tolerance level relative to wild type, Flumioxazin” value was “+++ (‘+’ per each 10-fold resistance)” and the “tolerance level relative to wild type, Fomesafen” value was “+ (‘+’ per each 10-fold resistance)”. The “tolerance level relative to wild type, Oxyfluorfen” value was “+ (‘+’ per each 10-fold resistance)”, the “tolerance level relative to wild type, Saflufenacil” value was “+++ (‘+’ per each 10-fold resistance)” and the “tolerance level relative to wild type, Sulfentrazone” value was “++ (‘+’ per each 10-fold resistance)”. The “tolerance level relative to wild type, Tiafenacil” value was “+++ (‘+’ per each 10-fold resistance)”. In the case of B3, the “tolerance level relative to wild type, Carfentrazone” value is reported as “+ (‘+’ per each 10-fold resistance)”, the “tolerance level relative to wild type, Flumioxazin” value is reported as “++++ (‘+’ per each 10-fold resistance)” and the “tolerance level relative to wild type, Fomesafen” value is reported as “++ (‘+’ per each 10-fold resistance)”. The “tolerance level relative to wild type, Oxyfluorfen” value was “+ (‘+’ per each 10-fold resistance)”, the “tolerance level relative to wild type, Saflufenacil” value was “++ (‘+’ per each 10-fold resistance)” and the “tolerance level relative to wild type, Sulfentrazone” value was “+++ (‘+’ per each 10-fold resistance)”. For the same molecule, the “tolerance level relative to wild type, Tiafenacil” value was “++++ (‘+’ per each 10-fold resistance)”. For B4, the “tolerance level relative to wild type, Carfentrazone” value was “+ (‘+’ per each 10-fold resistance)”, the “tolerance level relative to wild type, Flumioxazin” value was “+++++ (until ‘+++++’ as maximal resistance)” and the “tolerance level relative to wild type, Fomesafen” value was “+++++ (until ‘+++++’ as maximal resistance)”. The “tolerance level relative to wild type, Oxyfluorfen” value was “+++ (‘+’ per each 10-fold resistance)”, the “tolerance level relative to wild type, Saflufenacil” value was “+++++ (until ‘+++++’ as maximal resistance)” and the “tolerance level relative to wild type, Sulfentrazone” value was “+++++ (until ‘+++++’ as maximal resistance)”. The “tolerance level relative to wild type, Tiafenacil” value was “+++++ (until ‘+++++’ as maximal resistance)”. B5 was tested, and the “tolerance level relative to wild type, Carfentrazone” value was “+ (‘+’ per each 10-fold resistance)”, the “tolerance level relative to wild type, Flumioxazin” value was “++++ (‘+’ per each 10-fold resistance)” and the “tolerance level relative to wild type, Fomesafen” value was “+++ (‘+’ per each 10-fold resistance)”. For the same molecule, the “tolerance level relative to wild type, Oxyfluorfen” value was “++ (‘+’ per each 10-fold resistance)”, the “tolerance level relative to wild type, Saflufenacil” value was “++ (‘+’ per each 10-fold resistance)” and the “tolerance level relative to wild type, Sulfentrazone” value was “++ (‘+’ per each 10-fold resistance)”. For the same molecule, the “tolerance level relative to wild type, Tiafenacil” value was “+++ (‘+’ per each 10-fold resistance)”. In the case of B6, the “tolerance level relative to wild type, Carfentrazone” value is reported as “+ (‘+’ per each 10-fold resistance)”, the “tolerance level relative to wild type, Flumioxazin” value is reported as “++++ (‘+’ per each 10-fold resistance)” and the “tolerance level relative to wild type, Fomesafen” value is reported as “+++ (‘+’ per each 10-fold resistance)”. The “tolerance level relative to wild type, Oxyfluorfen” value was “++ (‘+’ per each 10-fold resistance)”, the “tolerance level relative to wild type, Saflufenacil” value was “++++ (‘+’ per each 10-fold resistance)” and the “tolerance level relative to wild type, Sulfentrazone” value was “+++ (‘+’ per each 10-fold resistance)”. For the same molecule, the “tolerance level relative to wild type, Tiafenacil” value was “+++ (‘+’ per each 10-fold resistance)”. With B7 the “tolerance level relative to wild type, Carfentrazone” value was “+ (‘+’ per each 10-fold resistance)”, the “tolerance level relative to wild type, Flumioxazin” value was “+++++ (until ‘+++++’ as maximal resistance)” and the “tolerance level relative to wild type, Fomesafen” value was “++ (‘+’ per each 10-fold resistance)”. The “tolerance level relative to wild type, Oxyfluorfen” value was “++ (‘+’ per each 10-fold resistance)”, the “tolerance level relative to wild type, Saflufenacil” value was “++++ (‘+’ per each 10-fold resistance)” and the “tolerance level relative to wild type, Sulfentrazone” value was “+++ (‘+’ per each 10-fold resistance)”. For the same molecule, the “tolerance level relative to wild type, Tiafenacil” value was “+++++ (until ‘+++++’ as maximal resistance)”. For B8, the “tolerance level relative to wild type, Carfentrazone” value was “+ (‘+’ per each 10-fold resistance)”, the “tolerance level relative to wild type, Flumioxazin” value was “+++++ (until ‘+++++’ as maximal resistance)” and the “tolerance level relative to wild type, Fomesafen” value was “+++++ (until ‘+++++’ as maximal resistance)”. For the same molecule, the “tolerance level relative to wild type, Oxyfluorfen” value was “+++ (‘+’ per each 10-fold resistance)”, the “tolerance level relative to wild type, Saflufenacil” value was “+++++ (until ‘+++++’ as maximal resistance)” and the “tolerance level relative to wild type, Sulfentrazone” value was “+++++ (until ‘+++++’ as maximal resistance)”. For the same molecule, the “tolerance level relative to wild type, Tiafenacil” value was “+++++ (until ‘+++++’ as maximal resistance)”.
